Results reported in the nanobody polyreactivity screen of Harvey et al. (2022).

Experiment: yeast display, Sf9 membrane polyspecificity reagent, FACS + sequencing; frameworks hold sequencing errors
Summary of the method: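 Nanobodies came from a synthetic yeast display library in Saccharomyces cerevisiae BJ5465, induced with galactose for 36–48 hours and stained for 1 hour at 4 °C with 10% biotinylated, detergent-solubilized Sf9 membrane reagent. Cells were enriched on streptavidin microbeads and then FACS-sorted, with low and high (top ~1%) gates set on anti-HA fluorescence for expression and streptavidin fluorescence for reagent binding. Each polyreactivity label reflects the gate a clone came from. Genes were amplified by colony PCR, sequenced by MiSeq 2 × 250 and filtered by CDR length.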

Sequence | polyreactivity (PSR sort gate)
QVQLVESGGGLVQAGGSLRLSCAASGFIFYNYAMGWYRQAPGKERELVAAITGGGSTNYADSVKGRLTISRDNPKNTVYLQMNSLKPEDTAVYYCAAEEGPPWSRYDYWGQGTQVTVSS | low polyreactivity
QVQLQESGVGLVQAGGSLRLSCAASGTIFRISDMGSYRQAPGKEREFVAAITYGANTYYADSGKGRFTISRDNAKNTVYLQMNSLKPEDTAVYYWAVPPVKETILDYWGQGTQVTVSS | low polyreactivity
QVQLVESGVGLVQAGGSLRLSCAASGRTFDYNAMGWYIQAPGKERELVAAITSSGGSTYYADSVKGRFTISRDNAKNTVYLQMNSLKPEDTAVYYCDTDGQSPYYIYYWGQGTQVTVSS | low polyreactivity
QVQLVESGGGLVQAGGSLRLSCAASGRTFTQYAMGWYRQAPGKERELVARISYSGGTTYYADSVKGRFTISRDNAKNTVYLQMNSLKPEDNAVYYCAKARVVAGYDYWGQGTQVTVSS | high polyreactivity
QVQLVESGGGLVQAGGSLRLSCAASGRTLVLNMGWYRPAPGKERELVATINSGGSTYYADSVKGRFTISRDNAKNTVYLQMNSLKPEDTAVYYCAVLSSDGKFDYWGQGTQVTVSS | low polyreactivity
QVQLVESGGGLVQAGGSLRLSCAASGSTFDPNVMGWYRQAPGKERELVAGITWRGGRTYYADSVKGRFTISRDNAKNTVYLQMNSLKPEDTAVYYCNAEDWTRKYDYWGQGTQVTVSS | high polyreactivity
QVQLVESGGGLVQAGGSLRLSCAASGRTFRYYVMGWYRQAPGKERELVADISRGGGRTRYADSVKGRFTISRDNAKNTVDLQMNSLKPEDTAVYYCAARSYTGQFGYWGQGTQVTVSS | high polyreactivity
QVQLVESGGGLVQAGGSLRLSCAASGSTFTSYTMGWYRQAPGKERELVARITRGGGSTYYADSVKGRFTISRDNAKNTVYLQMNSLKPEDTAVYYCNAEGYLLPVGNTMDYWGQGTQVTVSS | low polyreactivity
QVQLVESGGGLVQAGGSLRLICAASRFTFPGYTLGWYRQEPGKERELVATINRSGSTTYADSVKGRFTISRDNAKNTVYLHMYRLKPQDTADYYCAAVVWGSGNKMDYWGQGTQVTGSS | high polyreactivity
QVQLVESGAGLVQAGGSLRLSCAASGSTFAINAMGWYRQAPGKERELVAAISSRGSTNYADSVKGRFTISRDNAKNTVYLQMNSLKPEDTAVYYCAADRVWGTPQAYVPSQFDYWGQGTQVTVSS | low polyreactivity
QVQLVESGGGLVQAGGSLRLSCAASGRIFVRYAMGWYRQAPGKERELVAAITKSGGSTYYADSVKGRFTISRDNAKNTVYLQMNSLKPEDTAVYYCNADRFYIDYTNTYDSIRDYWGQGTQVTVSS | low polyreactivity
QVQLVESGGGLVQAGGSLRLSCAASGSTFYTYALGWYRQAPGKERELDAAITYNGGSTYYADSVKGRFTISRDNAKNTVYLQMNSLKPEDTAVYYCARTIYLGSRVNGYWRYDYWGQGTQVTVSS | high polyreactivity
QVQLVESRGGLVQAGGSLRLSCAASGSIFYRNVMGWYTQAPRKEREWVAAISGRGGSTYYADSVKGRFTISRDNAKNTVYLQFTSLKPEDTAVYYCATELTYRHGYWGQGTQVTVSS | high polyreactivity
QVQLVESGGGLVQAGGSLRLSCAASGRIFKLNAMGWYRQAPGNERELVAAITFAGGSTYYADSVKGRFTISRDIAKNTVYLQMNSLKPEDTAVYYCNADFSNVEMDYWGQGTQVNVSS | low polyreactivity
QVQLVESGGGLVQAGGSLRLSCAASGFTFSHYAMGWYRQAPGKERELVAAITASGGNTYYADSVKGRFTISRDNAKNTVYLQMNSLKPEDTAVYYCNAVSLKFTRKYDYWGQGTQVTVSS | high polyreactivity
QVQLVESGGGLVQAGGSLRLSCAASGSTFWANAMGWYRQAPGKERELVAAITSTGITYYADSVKGRFTISRDNAKNTVYLQMNSLKPEDTAVYYCAADGYRYSVYLIRNPMDYWGQGTQVTVSS | low polyreactivity
QVQLVESGGGLVQAGGSLRLSCAASGRTFVTNAMGWYRQAPGKERELVAAISSSGGSTYYADSVKGRFTISRDKAKNTVYLQMNSLKPEDTAVYYCAVGGQTKGQYDYWGQGTQVTVSS | low polyreactivity
QGQLVESGGGLVQAGGSLRISSAASGGNFPGNTMGWYRLAPGKESELVAAISNGVSTNYADSVKGGFTISRDNAKNTVYLQMNSQKPEDTAVYYCAAEWSWWDGEDYHFEYDYWGQGTQVTVSS | low polyreactivity
QVQLVESGGGLVQAGGSLRLSCAASGHTFRGYDMGWYRQATGKQRELFASISSSGGSTYYADSVKGRFTISRDNAKNTVYLQMNSLKPEDTAVYYCATRDGVVDTEPDQSYAVELDYWGQGTQVTVSS | low polyreactivity
QVQLVESGGGLVQAGGSLRLSCAASGSTFGGYAMGWYRQAPGKERELVASISGGTRTNYADSVKGRFTISRDNAKNSVYLQMNSLKPEDTAVYYCAAEVGLPTWYTLPVDDYDYWGQGTQVTVSS | low polyreactivity
QVQLVESGRGLVQAGGSLRLSCAASGFTFPNYAMGWYRQAPGKERELVASITRRAGSTNYADSVKGRFTISRDNAKNTVYLQMNSLKPEDTAVYYCNTVVLRYLYNYWGQGTQVTVSS | high polyreactivity

Sequence | polyreactivity (PSR sort gate)
QVQLVESGGGLVQAGGSHRLSCAATGFTFSYYSMGWYRQAPGKERELVAAITSSAGSTYYADTVKGRFTISRDNAKNTVYLQMNSLKPEDTAVYYCNAVYSKLNGGYDYWGQGTQVTVSS | low polyreactivity
QVQLVESGGGLVQAGGSLRLSCAASGFTFVYYAMGWYRQAPGKERELVAAISRGGSTYYADSVKGRFTISRDNAKNTVYLQMNCLKPVDTAVYYCNAKKSGHYVSYPAYDYWGQGTQVTVSS | low polyreactivity
QVQLVESGGGLVQAGGSLRLSCAASGGILRQNTMGWYRQAPGKERELVAAISSSGGRTYYADSVKGRFTISRDNAKNTVYLQMNSLKPEDTAVYYCAAEVRLKYRGWTGDYWGQGTQVTVSS | high polyreactivity
QVQLVESGGGLVQAGGSLRLSCAASGIIFGGYDMGWYRQAPGKERELVAGIRSGGSTYYADSVKGRFTISRDNAKNTVYLQMNSLKPEDTAVYYCAADSYTEVDYWGQGSQVTVSS | low polyreactivity
QVQLVESGGGLVQAGGSLRLSCAASGFTFFHYAMGWYRQAPGKERELVAAINTRGSRTYYADSVKGRFTISRDNAKNTVYLQMNSLKPEDTAVYYCAADSVQVYAWQYYYWGQGTQVTVSS | high polyreactivity
QVQLVESGGRLVQAGGSLRLSCAASGSTINKYAMGWYRQAPGKERELVAAISRSGGSTNYADSVKGRFTISRDNAKNTVYLQMNSLKPEDNAVYYCNRTRYRSFHYDYWGQGTQVTVSS | high polyreactivity
QVHLVESGGGLVQPGGSLRLSCAASGSTFQTYAMVWYRQAPGKERELVAAITSGGSTNYADSVKGRFTISRDNAKNTVYLQMNSVYPEVTAVYFCAVRQIYQTSDHRLQYDYWGQGTQVTVSS | low polyreactivity
QVQLVESGGGLVQAGGSLRLSCAASGRIFRYYDMGWYRQAPGKERELVAAITSDGSTKDADSVKGRFTISRDNAKNTVYLQMNSLKQEDTAVYYCNAEVLPTWYSPQLDYWGQGTQVTVSS | low polyreactivity
QVQLVESGGGLVQAGGSLRLSCAASGSTFIVNAMRWYRQAPGKERELVAAIDWSGGSTYYADSVKGRFTISRDNAKNTVYLQMNSLKPEDTAVYYCAAQYEIPAGNSTYDYWGQGTQVTVSS | low polyreactivity
QVQLVESGGGLVQAGGSLRLSCAASGRTFYYYTMGWYRQAPGKERELVAAIRGSGRTYYADSVKGRFTISRDNAKNTVYLQMNSLKPEDTAVYYCAAETGYTIRYDYWGQGTQVTVSS | high polyreactivity
QVQLVESGGGLVQAGGSLRLSCAASGITFGTNAMGWYRQAPGKERELVAAITSGVSTYYADSVKGRFTISRDNAKNTVYLQMNSLIPEDTAVYYCAKDVAVYADLYQGDPYGYWGQGTLVTVSS | low polyreactivity
QVQLVESGGGLVQAGGSLRLSCAASGSIFGFYVMGWYRQAPGKERELVAAISRGGTRTYYAVSVKGRFTISRDNAKNTVYLKMNSLKPEDTAVYYCAKYEGGSCTGPRSDYWGQGTQVTVSS | high polyreactivity
QVQLVESGGGLVQAGGSLRLSCASSGRIFGYYVRGWYRQAPGTERELVATISRVGTTNYADSVKGRFTISRDNAKNSVYLPMNSLKPEDTAVYYCNADYTGHRGGNDYWGQGTQVTVSS | low polyreactivity
QLQLVESGGGLVQAGGSLRLSCAASGSIFGPYARGWYRQAPGKERELVAAITDGGGSTYYADSVKGRFTISRDNAKNTVYLQMNSLKPEETAVDYCAADHSSKSGPADTFYWFDYWGQGTQVTVSS | low polyreactivity
QVQLVESGGGLVQAGGSLRLSCAASGFTFSVNDMGWYRQAPGKERELVAGISRGDNTNYADSVKGRFTISRDNAKNTVYLQMNSLKPEDTAVYYCAADFSLGLYRSWFGDYDYWGQGTQVTVSS | low polyreactivity
QVQLVETGGGLVQAGGSLRLSCAASGSIFTPYAIGWYRKAPGKDRELVAAITSRGGTTYYADSVKGRFTISRDNAKNTVYLQMNSLKPEDTAVYYCAAEYYHLYYYQFDYWGQGTQVTVSS | high polyreactivity
QVQLVESGGGLVQAGGSLRLSCAASGSTFYRNAMGWYRQAPGKERELVAGISYGGGSTYYADSVKGRFTISRDNAKNTVYLQMNSLKPEDTAVYYCYAVWVKRHYYYWGQGTQVTVSS | low polyreactivity
QVQLVESGGGLVQAGGSLRLSSAASGRIFRRNTMGWYRQAPGKERELVAAITYSGGSTYYADSVKGRFTISRDNAKNTVYLQMNSLKPEDTAVYYCAADTGFYYWYDYWGQGTQVTVSS | low polyreactivity
QVQLVESGGGLVQAGGSLRLSCAASGIIFGRYAMGWYRQAPGKERELVAVISRSGGSTYYADSVKGRFTISRDNAKNTVYLQMNSLKPEDTAVYYCAARYTPTYNAGLDYWGQGTQVTVSS | high polyreactivity
QVQLVESGGGLVQAGGSLRLSCAASGFIFAINAMGWYRQAPGKEREFVAAISSDGASTYYADSVKGRFTISRDNAKNTVYFQMNSLKPEDTAVYYCNAVPYEWTYPYEYYYWGQGTQVTVSS | low polyreactivity
